Laboratory results published in patent US20140322759.
Where a chain is given by its changes, count along the chain named.

Tests used:
Assay in all cases: EMSA
[1] = target: T1, phi29 DNA polymerase wild-type (Bacillus phage phi29) (UniProt P03680); settings: SD 5.7; unit not printed in table (enzyme titrated 0-600 μM, 2 μM DNA as printed); Tris-acetate pH 7.9, 66 mM K-acetate, no Mg listed, 30 C
T1 sequence: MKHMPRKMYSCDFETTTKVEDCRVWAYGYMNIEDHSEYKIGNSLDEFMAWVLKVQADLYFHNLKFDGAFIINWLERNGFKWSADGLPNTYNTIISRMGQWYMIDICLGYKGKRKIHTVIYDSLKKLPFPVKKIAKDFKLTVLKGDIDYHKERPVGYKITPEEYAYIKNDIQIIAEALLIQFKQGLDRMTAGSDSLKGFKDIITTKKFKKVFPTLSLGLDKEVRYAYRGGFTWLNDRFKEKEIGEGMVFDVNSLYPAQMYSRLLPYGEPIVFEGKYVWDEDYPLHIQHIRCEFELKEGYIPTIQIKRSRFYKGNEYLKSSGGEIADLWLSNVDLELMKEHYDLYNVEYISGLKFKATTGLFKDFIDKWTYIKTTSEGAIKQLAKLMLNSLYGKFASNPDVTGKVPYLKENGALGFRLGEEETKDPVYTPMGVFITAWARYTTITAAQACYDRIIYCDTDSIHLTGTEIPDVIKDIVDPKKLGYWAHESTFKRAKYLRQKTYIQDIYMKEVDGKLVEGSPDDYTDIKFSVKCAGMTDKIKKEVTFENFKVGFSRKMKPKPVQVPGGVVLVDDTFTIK

[2] = target: T2, phi29 DNA polymerase E221K E221K (Bacillus phage phi29) (UniProt P03680); settings: SD 18.4; unit not given (μM in assay); pH 7.9, 66 mM K-acetate, 30 C
T2 sequence: T1 sequence with E221K

[3] = target: T3, phi29 DNA polymerase V51A V51A (Bacillus phage phi29) (UniProt P03680); settings: SD 10.8; unit not given (μM in assay); pH 7.9, 66 mM K-acetate, 30 C
T3 sequence: T1 sequence with V51A

[4] = target: T4, phi29 DNA polymerase E515A E515A (Bacillus phage phi29) (UniProt P03680); settings: SD 56.5; unit not given (μM in assay); pH 7.9, 66 mM K-acetate, 30 C
T4 sequence: T1 sequence with E515A

## GATCACAGTGAGTAC / TCTATTGTACTCACTGTGATC [15-mer/21-mer primer/template]
[1]
  Kd: 76 µM
[2]
  Kd: 67 µM
[3]
  Kd: 52 µM
[4]
  Kd: 97 µM
